No end group written: not given here.
Molecular target: T1, PHF1 Tudor-PHD1 (human, UniProt O43189 14-140)
T1 sequence: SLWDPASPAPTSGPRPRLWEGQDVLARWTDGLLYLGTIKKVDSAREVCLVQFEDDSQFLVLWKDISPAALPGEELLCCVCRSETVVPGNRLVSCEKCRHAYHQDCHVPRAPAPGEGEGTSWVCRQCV
Assay: NMR titration

ATGGVK(Me3)KPHR [H3K36me3 peptide]: binds.

Reference: article PMC4007151 (Nature communications, 2013)
